What was measured:
PykFPA = target: T1, PykFPA (Pseudomonas aeruginosa, UniProt Q9I3L4); assay: lactate dehydrogenase-coupled assay, activation; format: biochemical; settings: K-type activator (shifts S0.5 of PEP), 2 mM ADP, allosteric
T1 construct: gene pykF; full-length, 477 residues, untagged, from pET-19m in E. coli BL21(DE3)
T1 sequence (Q9I3L4 1-477): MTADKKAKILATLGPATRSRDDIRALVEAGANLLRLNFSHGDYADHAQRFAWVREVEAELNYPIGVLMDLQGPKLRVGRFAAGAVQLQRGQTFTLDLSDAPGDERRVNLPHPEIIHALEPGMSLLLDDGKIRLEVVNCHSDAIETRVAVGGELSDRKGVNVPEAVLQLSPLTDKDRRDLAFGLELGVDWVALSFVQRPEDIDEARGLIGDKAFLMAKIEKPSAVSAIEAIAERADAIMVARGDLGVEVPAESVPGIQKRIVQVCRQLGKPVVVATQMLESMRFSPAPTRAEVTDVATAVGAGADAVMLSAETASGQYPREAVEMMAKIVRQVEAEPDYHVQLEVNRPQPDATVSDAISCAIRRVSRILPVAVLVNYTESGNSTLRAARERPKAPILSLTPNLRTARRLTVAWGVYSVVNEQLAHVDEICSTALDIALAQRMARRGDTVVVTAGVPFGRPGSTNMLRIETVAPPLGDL

[1] = target: the molecule itself; assay: AUC; purified PykFPA in solution; carried out as previously described (Abdelhamid et al., 2019); analysed with SEDFIT and SEDNTERP
[2] = substrate: C=C(OP(=O)(O)O)C(=O)O; assay: lactate dehydrogenase-coupled assay; format: biochemical, Pseudomonas aeruginosa; settings: 2 mM ADP; Mg2+; no regulator added; sigmoidal
[3] = substrate: Nc1ncnc2c1ncn2[C@@H]1O[C@H](COP(=O)(O)OP(=O)(O)O)[C@@H](O)[C@H]1O; assay: lactate dehydrogenase-coupled assay; format: biochemical, Pseudomonas aeruginosa; settings: 5 mM PEP; Mg2+; no regulator added; hyperbolic

How did the “lactate dehydrogenase-coupled assay, activation” value (PykFPA; 0.5 mM) turn out when `O=C(CO)[C@@H](O)[C@H](O)COP(=O)(O)O` [xylulose 5-phosphate] was run?
The value was “strongly activated by metabolites from the non-oxidative PPP [(xylulose 5-phosphate (X5P)”.

With `O=C(CO)[C@H](O)[C@H](O)COP(=O)(O)O` [ribulose 5-phosphate] as the molecule, how does the “lactate dehydrogenase-coupled assay, activation” value (PykFPA; 0.5 mM) read?
The value was “ribulose 5-phosphate (RL5P), and R5P]”.

For `O=P(O)(O)OC[C@H]1OC(O)[C@H](O)[C@@H](O)[C@@H]1O` (stereo partly shown) [glucose 6-phosphate], which “lactate dehydrogenase-coupled assay, activation” value (PykFPA; 1 mM) is on record?
Its value is “to a lesser extent, by the EDP intermediates G6P and G3P”.

Which “lactate dehydrogenase-coupled assay, activation” value (PykFPA; 1 mM) does the source give for `O=C[C@H](O)COP(=O)(O)O` [glyceraldehyde 3-phosphate] here?
The value was “to a lesser extent, by the EDP intermediates G6P and G3P”.

For `Nc1ncnc2c1ncn2[C@@H]1O[C@H](COP(=O)(O)O)[C@@H](O)[C@H]1O` [adenosine 5′-monophosphate], which “lactate dehydrogenase-coupled assay, activation” value (PykFPA; 1 mM) is on record?
The value was “PykFPA (but not PykAPA) was activated by AMP”.

For `O=P(O)(O)OC[C@H]1OC(O)[C@H](O)[C@@H]1O` (stereo partly shown) [ribose 5-phosphate], which “lactate dehydrogenase-coupled assay, activation” value (PykFPA; 0.15 mM) is on record?
Its value is “ribulose 5-phosphate (RL5P), and R5P]”.

B1: Pseudomonas aeruginosa pyruvate kinase isozyme PykF (PykFPA) (enzyme, UniProt Q9I3L4 1-477, looked up)
chain: MTADKKAKILATLGPATRSRDDIRALVEAGANLLRLNFSHGDYADHAQRFAWVREVEAELNYPIGVLMDLQGPKLRVGRFAAGAVQLQRGQTFTLDLSDAPGDERRVNLPHPEIIHALEPGMSLLLDDGKIRLEVVNCHSDAIETRVAVGGELSDRKGVNVPEAVLQLSPLTDKDRRDLAFGLELGVDWVALSFVQRPEDIDEARGLIGDKAFLMAKIEKPSAVSAIEAIAERADAIMVARGDLGVEVPAESVPGIQKRIVQVCRQLGKPVVVATQMLESMRFSPAPTRAEVTDVATAVGAGADAVMLSAETASGQYPREAVEMMAKIVRQVEAEPDYHVQLEVNRPQPDATVSDAISCAIRRVSRILPVAVLVNYTESGNSTLRAARERPKAPILSLTPNLRTARRLTVAWGVYSVVNEQLAHVDEICSTALDIALAQRMARRGDTVVVTAGVPFGRPGSTNMLRIETVAPPLGDL
notes: Pyruvate kinase PykF of Pseudomonas aeruginosa (PA1498), untagged full-length protein, 477 residues, monomer 51.5 kDa; also called PA1498; source: E. coli BL21 (DE3) with plasmid pET-19m (pykF), purified
B1 was tested. Which “stoichiometry N” value [1] did it give?
The value was 4.

And the K0.5 [2]?
The K0.5 was 1.03 ± 0.01 mM.

What about the kcat [2] of the same molecule?
The kcat was 379 s⁻¹.

And the kcat/Km [2]?
Its kcat/Km is 367000 M⁻¹ s⁻¹.

What about the K0.5 [3] of the same molecule?
The K0.5 was 0.11 ± 0.01 mM.

What about the kcat [3] of the same molecule?
Its kcat is 433 s⁻¹.

What about the kcat/Km [3] of the same molecule?
Its kcat/Km is 3.94e+06 M⁻¹ s⁻¹.

Reference: publication PMC8637920, “Structure, Function and Regulation of a Second Pyruvate Kinase Isozyme in Pseudomonas aeruginosa” (Frontiers in Microbiology, 2021)
